# Reference: PMC10079658
# Key:
# [1] = tested on: His-CPA (C-terminus of RNA polymerase subunit PA) (Influenza A); assay: BLI; details: all A are 7-phenylbutyl-7-deaza-dA (A*); 25 mM HEPES, 5 mM MgCl2, 300 mM KCl, pH 7.4 (BLI) or 7.5 (SELEX), 24 °C; plate assay washes with 1% BSA, 0.05% Tween …; aptamers folded 95 °C 5 min then cooled
# [2] = molecular target: SBP-Hsp70 (UniProt P0DMV8); assay: BLI; details: all A are 7-phenylbutyl-7-deaza-dA (A*); 25 mM HEPES, 5 mM MgCl2, 300 mM KCl, pH 7.4 (BLI) or 7.5 (SELEX), 24 °C; plate assay washes with 1% BSA, 0.05% Tween …; aptamers folded 95 °C 5 min then cooled
# [3] = tested on: His-SUMO; assay: BLI; details: all A are 7-phenylbutyl-7-deaza-dA (A*); 25 mM HEPES, 5 mM MgCl2, 300 mM KCl, pH 7.4 (BLI) or 7.5 (SELEX), 24 °C; plate assay washes with 1% BSA, 0.05% Tween …; aptamers folded 95 °C 5 min then cooled
# [4] = molecular target: His-Hsp70 (Heat Shock Protein 70) (UniProt P0DMV8); assay: BLI; details: 25 mM HEPES, 5 mM MgCl2, 300 mM KCl, pH 7.4 (BLI) or 7.5 (SELEX), 24 °C, plate assay washes with 1% BSA
# [5] = tested on: His-NPA (N-terminus of RNA polymerase subunit PA) (Influenza A); assay: BLI; details: all A are 7-phenylbutyl-7-deaza-dA (A*); 25 mM HEPES, 5 mM MgCl2, 300 mM KCl, pH 7.4 (BLI) or 7.5 (SELEX), 24 °C; plate assay washes with 1% BSA, 0.05% Tween …; aptamers folded 95 °C 5 min then cooled
# [6] = tested on: His-CPA (C-terminus of RNA polymerase subunit PA) (Influenza A); assay: fluorescence plate binding assay; details: all A are 7-phenylbutyl-7-deaza-dA (A*); 25 mM HEPES, 5 mM MgCl2, 300 mM KCl, pH 7.4 (BLI) or 7.5 (SELEX), 24 °C; plate assay washes with 1% BSA, 0.05% Tween …; aptamers folded 95 °C 5 min then cooled
# [7] = tested on: His-SUMO; assay: fluorescence plate binding assay; details: all A are 7-phenylbutyl-7-deaza-dA (A*); 25 mM HEPES, 5 mM MgCl2, 300 mM KCl, pH 7.4 (BLI) or 7.5 (SELEX), 24 °C; plate assay washes with 1% BSA, 0.05% Tween …; aptamers folded 95 °C 5 min then cooled
# [8] = molecular target: His-Hsp70 (Heat Shock Protein 70) (UniProt P0DMV8); assay: fluorescence plate binding assay; details: 25 mM HEPES, 5 mM MgCl2, 300 mM KCl, pH 7.4 (BLI) or 7.5 (SELEX), 24 °C, plate assay washes with 1% BSA
# [9] = tested on: His-NPA (N-terminus of RNA polymerase subunit PA) (Influenza A); assay: fluorescence plate binding assay; details: all A are 7-phenylbutyl-7-deaza-dA (A*); 25 mM HEPES, 5 mM MgCl2, 300 mM KCl, pH 7.4 (BLI) or 7.5 (SELEX), 24 °C; plate assay washes with 1% BSA, 0.05% Tween …; aptamers folded 95 °C 5 min then cooled
# [10] = all A are 7-phenylbutyl-7-deaza-dA (A*), 0.05% Tween …, aptamers folded 95 °C 5 min then cooled
# [11] = none (natural dA), 0.05% Tween 20, aptamers folded 95 °C 5 min then …
# [12] = all A after nt 19 are 7-phenylbutyl-7-deaza-dA (A*), 0.05% Tween 20, aptamers folded 95 °C 5 min then …
# [13] = A after nt 19 are 7-phenylbutyl-7-deaza-dA (A*), 0.05% Tween 20, aptamers folded 95 °C 5 min then …
sequence,measurement,setting,value
AGACCTCATAGTCCTTCTAATTATACTCCAATGGCATAGCTGGCAC [HSc-9.1],Kd,[1],1240 nM
same,Kd,[2],28.5 nM
same,Kd,[3],1320 nM
same,Kd,[4]; [10],29.1 nM
same,Kd,[5],1550 nM
same,Kd,[6],1000 nM
same,Kd,[7],1110 nM
same,Kd,[8]; [10],14.8 nM
same,Kd,[9],1250 nM
GCAGCAGAGATAGACGCTAAGACCTCATAGTCCTTCTAATTATACTCCAATGGCATAGCTGGCAC [HSNat-9],Kd,[4]; [11],4650 nM
same,Kd,[8]; [11],> 10000 nM
GCAGCAGAGATAGACGCTAAGACCTCATAGTCCTTCTAATTATACTCCAATGGCATAGCTGGCAC [HSc-9],Kd,[4]; [12],36 nM
same,Kd,[8]; [12],29.1 nM
GCAGCAGAGATAGACGCTACCCCTTAATAAAAACATACGGTCCATTCCCGTCGTACGATTGATTG [Scr2],Kd,[4]; [13],620 nM
same,Kd,[8]; [13],687 nM
GCAGCAGAGATAGACGCTACCCCTTAATAAAAACATACGGTCCATTCCCGTCGTACGATTGATTG [Scr3],Kd,[4]; [13],700 nM
same,Kd,[8]; [13],775 nM
GCAGCAGAGATAGACGCTATCGATGACTATAATTCCCATCTATCATCCAATGGCATAGCTGGCAC [Scr1],Kd,[4]; [13],560 nM
same,Kd,[8]; [13],536 nM
GCAGCAGAGATAGACGCTATTCTCTAGACCTTCTAATTTACATACTCCAATGGCATAGCTGGCAC [HSNat-2],Kd,[4]; [11],> 5000 nM
same,Kd,[8]; [11],> 10000 nM
GCAGCAGAGATAGACGCTATTCTCTAGACCTTCTAATTTACATACTCCAATGGCATAGCTGGCAC [HSc-2],Kd,"[4]; all A after nt 19 plus those marked A* are 7-phenylbutyl-7-deaza-dA, except none in 5' primer region (nt 1-19), printed A26 and later marked A*, 0.05% Tween 20, aptamers folded 95 °C 5 min then …",66 nM
same,Kd,"[8]; error printed as 6 in Table 6, all A after nt 19 plus those marked A* are 7-phenylbutyl-7-deaza-dA, except none in 5' primer region (nt 1-19), printed A26 and later marked A*, 0.05% Tween 20, aptamers folded 95 °C 5 min then …",245 nM
